A short description of this series: soluble fraction after stress (log2 fold change); higher = more stays soluble; pooled small domains, quantitative proteomics. To be noted: stress: 75 degC.
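Note: 20 min heating vs room temperature control held 20 min.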

Take “HMGMSKQKQSSLVRIIMQEISDANEGRMKMSQIIDAALIKGISDSTVRSVISRLSTTGAIYEPQTGTYEW”: the “soluble fraction (log2)” value is -0.649. With “HMGNEEEEAIREAEEAIERVLEYGEPQELNPQNGFIRRLQHQLAEKSHLSSESVGVEPYRRVRISK”, the “soluble fraction (log2)” value was found to be 0.193. In the case of “HMGNFFDSAILALKNAIQENYGGNVSQAARSLGISVPTLHTWIKGDRKPSLEKLSPILDALNAKIVL” it was -1.06.

Consider “HMGNFGDLLKILLDEKELSMGELSKKSGIDKSTISRIANNKQKPNINHLEKMAIHLNINLEELLKASGYEF”, for which the “soluble fraction (log2)” value is -0.666.

For “HMGNFQNIFRKLRTSSNLTQNAIAEKLGISRSTIGMYETGAREPDFETLEKIADYFNVDTDFLLGRTNQTT”, the “soluble fraction (log2)” value was -0.315. For “HMGNKDAQLVHLAKMNEIQIELMKTGRGYMVTDQNVYNLAKKMGENMGFKHPDLFLTDPAKV”, the “soluble fraction (log2)” value is -0.0897. With “HMGNKDIEILFSEIVEMRNRIIHGFRITSKQGEQILATKTRKKDGNIQFEITKEYLLDFIKKNEELSDMLY”, the “soluble fraction (log2)” value is -2.46. For “HMGNKWALLVVFILNENGSTRFNQLARQIPDISTKVLSNTLQILEADGLVKRTVFPEVPIRVEYELTATGK”, the “soluble fraction (log2)” value is -3.92.

For the sequence “HMGNLIIFYDEGIGSGPLMKAVNDSGVSLVYEYKNLHGIAIRPSAKTNIQDAIAYFQKVNGVLSVEQ”, the “soluble fraction (log2)” value was -2.92. As for “HMGNNKLVLSLAVALKNTPNFLKNYNYKISKDKKFIEILLSKQINEVSDIIINLKKNNINIVDLNIKKR”, the figure is -1.85. On to “HMGNNTEITYSEFIRQAEAGNVQYVTVDGEKLLISATDGKSYYTINPRDDQMTDRLLNSGVEIRAEPQ”, for which the “soluble fraction (log2)” value was found to be 0.021.

Turning to “HMGNRQEQVRIIRDLWRQLADAGQPVPAKHLTLDLDALDATQLTKLEDQAHGWLAKLSAQADLADAA”, the “soluble fraction (log2)” value is -0.0412.

As to “HMGNTMIVILKHEARQEQIDRLKQFLLGMGLRIDESKGENSTILGLVGDTTRVDADLISSLDAVEAVRRV”, the “soluble fraction (log2)” value is -0.891.

For “HMGNWENVEKETTEAIMAVKNGEAVWVDLAPANRMIRQMQHELVEQYGLLSQSYGKEPKRRIRIFQNP”, the “soluble fraction (log2)” value was -0.462. For the sequence “HMGPDALSIGRRVRQVRTARGMTLDELAAAVSRAPSQLSMIETGKREPKLSLLQAIARALGTTIDALLT”, the “soluble fraction (log2)” value is -0.856. Regarding “HMGPDGLFAKFREPETGKDLLITQNVFVEQVLIKGVLTRTLTDAEANTYRAPFVNPEKRFPIYVWPNELP”, the “soluble fraction (log2)” value was determined as 0.014. “HMGPEAFPVPYIVDIELDRAIYVIEQSGFIVGQKLEANDDNVPRGFVISQNPAAGTKLGPNSVVDLVISSG”: the “soluble fraction (log2)” value was -1.18.

In the case of “HMGPEQLIGKTGIAASELAPRGEVKIEGQIWRAETVGDHVKQGEPVEVVSREGLILRVKPKHPQTRG”, the “soluble fraction (log2)” value came out at 0.0258. As to “HMGPEVQLAYSEFLAKVKVGEVNDVMVKGNEIHGHFSDGRTFSTYSPNDPDLVEKLNKNKVMIKAAPP”, the “soluble fraction (log2)” value is 0.00889. As for “HMGPFYFDQDGKAYSGLLNRNGEILYFADPFNAAVKNTTKTIDGKTYTFNQNGRATSIDGIPLEPP”, the “soluble fraction (log2)” value came to 0.0904. In the case of “HMGPGDTTIPTTIIGMSLEEARNELSAAGLLVARIIPVDSNSRTGTVLKITPDAGSIIKAGSGVELEIAS” it was -0.101. In the case of “HMGPGFVGGSVLSGGNRGEGDPVANAQVFITDMDDNVVAFTKTDAEGNFDMTNLAYGDYKMYVDILNK”, the “soluble fraction (log2)” value was 0.126. In the case of “HMGPGSYVVNVKPYAYVSINGRDYGRTPVGPIRLDPGTYKVVFTHEHRPSFSRTIVVEAGRETFETFPYPG”, the “soluble fraction (log2)” value is -2.06. With “HMGPLPIDSRYFNNLVPYTGITHVNSVIPEAERHIGLTVVVKTGSTYSEYWYRTGVTNSSLELKT”, the “soluble fraction (log2)” value is -1.41. On to “HMGPLYARVKAIVLARIMGGDWPPGTALPAEMELARALGVSQGTVRKALDALTAEQVVVRRQGSGTYVAE”, for which the “soluble fraction (log2)” value is -1.75. Consider “HMGPNYYDILEIPTDASPSEITQAFRKKALEWHPDKNPNNLEEATSRFIEIVEAYRVLSSKDSKLQYDTG”, for which the “soluble fraction (log2)” value was -0.213. In the case of “HMGPSVGMTVGEMERDLIFRTLETVGDNRTKAADMLGISIRTLRNKLNEYREAGFEWPRKAG”, the “soluble fraction (log2)” value was -0.223. Consider “HMGQAVTMLKAGRLLANAKGTGAPVRSLEPGMLLYPTGVKEGTMWEVEDEMGNKGWVNSTLMETA”, for which the “soluble fraction (log2)” value is -0.6. As for “HMGQAVTVPELKGLSFDEAIEKLDDAGLKYEVVDSNYVEDMKPGTVFETLPEAGSRVKPRRIVFLTINAF”, the figure is -0.257; as for “HMGQDTTIVVRRGESLLGIAARLLPATDFYTTGELAEGIRTASGMENDRLIPGQTLRVPLNSG”, -0.24. For the sequence “HMGQGEISVPRLEGLSLRETSELLGLFGLRLEAAGSGIALSQNPPAGARVKAGDVIQVDFGEPGN”, the “soluble fraction (log2)” value came out at 0.0756.

Take “HMGQHSAELKLHPQDLGQVTISMKVEDNQAQLQMVSGHGHVRAALEAALPQLRSQLADSGIQLTQSSIS”: the “soluble fraction (log2)” value was -0.198. For “HMGQISDEETLKTVASRIIDANPDEARKYRSGKTGLLGFFVGQVMKATQGEANPKLASRIVKELLE”, the “soluble fraction (log2)” value is -0.15.

With “HMGQLIVTIPNFERRPAEQAIQKLEELGLVPEEKQIYHDDIPAGSVIYTDPSKDSQVNAGTKVYVYVSLG”, the “soluble fraction (log2)” value was -0.311.

“HMGQMGHAVVAKTDLAVGTPLTRDLVAVREVPVEWLHSSAITPEQFERAAGAVLAQPARGGEPLVWSQLEE”: the “soluble fraction (log2)” value came to 0.111. With “HMGQPRPLTAEDFDFLSDDEIAEMRKALSNGEMLRLRELIAQIGEKRPFLAERLLVLAKQYNYEDLSRLLE”, the “soluble fraction (log2)” value was -0.472. Take “HMGQQPPVTEIYKNHDGNKDGLLEAGEVTGSRYARQFPRWDVNGDQKVSPQEVIAFRKRFGIAADGTLL”: the “soluble fraction (log2)” value was 0.0193.

With “HMGQQTVEPLSRRELEVLSLLAKGLSNQQIADRLVISVRTVKKHVENIHGKLGVQSRTQAVARARELGLV”, the “soluble fraction (log2)” value was -1.24. Regarding “HMGQTYTITINPTPADAKVIIDGVATNSVEAIDGRTLIWSVSKPGYLTKSGNYTVTGKNETLNIVLKEDPD”, the “soluble fraction (log2)” value is 0.163. On to “HMGQVLEGVFRRKANGKNAFIPDGGGEPILVAERNSAHAMDGDRVKATLLARRKHHVREAQVTEILKRSSK”, for which the “soluble fraction (log2)” value is -0.258. “HMGQVSDENQLNKVIDEVIKNYPIQVEQFKAGKEPILQFLKGMVMKATEGSADPAVAEKLLRKKL”: the “soluble fraction (log2)” value came out at 0.0979. Turning to “HMGQYLDAATVAAVYHAYHARNWTQATLAKELKVARPTLSNVLNGREAPSVELAARIRAFLGSPEP”, the “soluble fraction (log2)” value is -3.16. In the case of “HMGRAAEETETFRTQGELDARIKELQGQMRDAAANLEFERAAGLRDTLKRLRTRGLGLSASP”, the “soluble fraction (log2)” value came to 0.0633.

For “HMGRENGTVKWFNTSKGFGFITRDDGGDVFVHFRSIQGEGHRALQEGQRVSYVVANRDKGLQAEDVTILN”, the “soluble fraction (log2)” value is -0.277. For the sequence “HMGRKRLADYGLNDTEQKIVRKIADGLSNREIAQALYLSEGTVKNYITDILGKLELRDRTQIAIFYLREIG”, the “soluble fraction (log2)” value is -0.941. Consider “HMGRLTTKIVLYDRIENIVPERRKELVADIEKRIGVKVEVLEIGHVDFVRDAAWLKVSYYLAPGE”, for which the “soluble fraction (log2)” value is -2.21.

Consider “HMGRNSTPKEPLKKFEVSPITEKEVRILDGRFGPYITDGATNVTVPKTITIEEITFERALDMLAEKAAKGP”, for which the “soluble fraction (log2)” value turned out to be 0.0521. In the case of “HMGRPQISDELRNAIIEVAKDNRDWGYIRIQGQLKYLGYRVSTATIGKVLKKAGLEPQPDRRRK” it was -1.92; in that of “HMGRPWRIGDVVNVSRPTGDGGGFTKGLITRIYPTTVQVTWNPDLQHARPWTTMEKKQYLIFVYHDDE”, -3.09; in that of “HMGRQTITLPDFSGQDLEQVKARLTEWGLVPEEKSVFSDSVPLGSVVRTVPAEGDEVSVGDTVTVYKSLGR”, 0.19. As for “HMGRRDLSWQPAAGGVSIDGLKAGEAWTLFGLNGRILKQGYAPEGQMSLAVNAGLFVLRGAESGVIRIAVA”, the figure is -1.38; as for “HMGRSYTIKSGDTLWAIATRYYGNGAQYSKIYNANKGTIESVAKSRGFRSSQNGHWIFPGTSITI”, -0.722. In the case of “HMGRTITVGIAEDADIKDIAKMLEEKGLISDYRLFVVQELLSAQHDKIKPGIYDLSTDMKAEEMLEILAG” it was -0.248. Consider “HMGRTKEEIFNILKERIVTLQYEPGKILNEIELSEEFEVSRTPIRTVFQQLEAVKLVSIVPRYGVQVA”, for which the “soluble fraction (log2)” value is -1.15. Regarding “HMGRYATVPDVVGSTPEVARELIRSEGLRYVLSEETVYSDSDTGTVGRTDPESGTRMSADDEVVVYLS”, the “soluble fraction (log2)” value came to 0.0649. On to “HMGRYVIQIASFSSKNNAIEAADKLGGFVVQSGRFYRVRTGPFATRGEADAALASARRVGYRDAFIDTS”, for which the “soluble fraction (log2)” value is -1.59.

In the case of “HMGSAIAHAIASLPDRYRELLLLKYDTGYSEKEIAQLLGMTEANVKKTIQRAKAKLQTLLDEMEA”, the “soluble fraction (log2)” value is -1.43. On to “HMGSAKAQLYDLMNAHQVTRNQIQDIVAEKGYFPAGTPIENYPDDFVKGVLVGAWDQVHKAILDKEI”, for which the “soluble fraction (log2)” value came to 0.326. On to “HMGSEISLNAFNIPKGSVSVTAGGTKLVENQDYTVDYTLGRIKILNEGILNSGVPIQVNFENNTLFN”, for which the “soluble fraction (log2)” value is -0.0124. For the sequence “HMGSEYILTIIPTPADATVFINGVKKNSASGVNGQILSWEVTKEGYIPQSGTFTINGKNETIEVVLQPQT”, the “soluble fraction (log2)” value was determined as 0.122. Regarding “HMGSFFSKATAPVRTTGGDGLYKHGSIWFNTSTGRLFVYIPDDRYTGLLDTHNGDIGYWVDVS”, the “soluble fraction (log2)” value was -2.53. “HMGSFGAMLKRNRKLAGLTQEQLAEKLDVSTVAVQNWESGKNQIRSEKLTKLSYLFNIPLETLIHEMLIS”: the “soluble fraction (log2)” value is -1.12. In the case of “HMGSFISADEALAKALSHAGLDQSAIRELEMDSELDDDVPHYSIDFKSGNLEYEYEISATDGSVLKFEQD”, the “soluble fraction (log2)” value was determined as 0.118. With “HMGSKEQELVILNNILERQLQAINLQKSAAGPMVNLRNVHNTLTKLVEAAGLKNVETYFTDPVIGAAQ”, the “soluble fraction (log2)” value is -0.0941. With “HMGSNTLEDAYKVLGITPDATDDEVRKAYKKMVIQHHPDKVANLGEDVKKAATIKLQEINNAKEIIFKARN”, the “soluble fraction (log2)” value was found to be 0.0129. As for “HMGSQSYVAIVNERFKESDIVELGGSVGSRTGDIITLHFRNSSPNELKNITGIVYLQVANKVTPKL”, the “soluble fraction (log2)” value was -1.26.

Turning to “HMGSTDTLEDALEAAEKISYPVIIKATAGGGGRGMKVASSLEELKKVYHTTKLEAKNAFGNDQVYIEKYL”, the “soluble fraction (log2)” value came to 0.162. Regarding “HMGSTYGISRVDNETSRTHGWLVTIQRRGVIYRKHFSDGVFGGKQRSFAAAKEYRDEVIAAHP”, the “soluble fraction (log2)” value was -2.68. In the case of “HMGSVVATLRKLIIDGHYPAGTRLAEIPVANALGVSRTPVRLAFRTLQQEGLLQTVGKRGIVVRAF”, the “soluble fraction (log2)” value was -1.28.

For the origin of these results see the domain aggregation screens of Martell et al. (2025).
